The data set is described as follows: background-corrected fluorescence of 3'-dye-labeled ssDNA relative to brightest sequence (3'-GCGCG) (fraction); higher = brighter dye fluorescence (less quenching). An outline of the steps:
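Light-directed phosphoramidite synthesis on glass slides produced single-stranded DNA carrying a 3' Cy3 or Cy5 dye next to each of 1024 permuted pentamers. After a 2 h acetonitrile wash at r.t., arrays were scanned at 532 or 635 nm both before and after overnight deprotection in ethylenediamine/ethanol. Every value is the mean of 10 features per array over at least 3 syntheses. Fluorescence had unlabeled-oligo background subtracted and was scaled to the brightest sequence.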

± gives the standard error.

Results on 29 sequences are retold here after the supplement of paper PMC9428881.

For the sequence “TTTTTTGATGCTGCTCATGCTTTTTTTTTTTTTTTCAAGA [AGAAC]”, the background-corrected fluorescence is 0.683 ± 0.036 (dye: Cy3 (3' terminal)) and 0.543 ± 0.026 (dye: Cy5 (3' terminal)).
The corresponding values for “TTTTTTGATGCTGCTGAGCATTTTTTTTTTTTTTTCAACT” are 0.53 ± 0.011 and 0.342 ± 0.018.
The like results for “TTTTTTGATGCTGCTGATCATTTTTTTTTTTTTTTCAACG [GCAAC]” were, in that order, 0.535 ± 0.022 and 0.408 ± 0.039.
In turn, “TTTTTTGATGCTGCTGATGATTTTTTTTTTTTTTTCAACC [CCAAC]” registered a background-corrected fluorescence (dye: Cy3 (3' terminal)) of 0.377 ± 0.027 and a background-corrected fluorescence (dye: Cy5 (3' terminal)) of 0.265 ± 0.023.
The like results for “TTTTTTGATGCTGCTGATGCTTTTTTTTTTTTTTTCAACA [ACAAC]” were, in that order, 0.489 ± 0.0058 and 0.368 ± 0.022.
The like results for “TTTTTTGATGCTGCTGCGCATTTTTTTTTTTTTTTCAAAT [TAAAC]” were, in that order, 0.553 ± 0.017 and 0.41 ± 0.061.
The corresponding values for “TTTTTTGATGCTGCTGCTCATTTTTTTTTTTTTTTCAAAG [GAAAC]” are 0.535 ± 0.017 and 0.396 ± 0.026.
Regarding “TTTTTTGATGCTGCTGCTGATTTTTTTTTTTTTTTCAAAC”, the background-corrected fluorescence runs as follows: (dye: Cy3 (3' terminal)) 0.428 ± 0.03; (dye: Cy5 (3' terminal)) 0.323 ± 0.031.
With “TTTTTTGATGCTGCTGCTGCTTTTTTTTTTTTTTTCAAAA [AAAAC]”, the background-corrected fluorescence (dye: Cy3 (3' terminal)) worked out at 0.569 ± 0.015 and the background-corrected fluorescence (dye: Cy5 (3' terminal)) was determined as 0.47 ± 0.03.
The corresponding values for “TTTTTTGCGCAGCAGCAGCATTTTTTTTTTTTTTTATTTT” are 0.488 ± 0.022 and 0.381 ± 0.02.
The corresponding values for “TTTTTTGCGCAGCAGCATCATTTTTTTTTTTTTTTATTTG [GTTTA]” are 0.5 ± 0.026 and 0.355 ± 0.025.
The corresponding values for “TTTTTTGCGCAGCAGCATGATTTTTTTTTTTTTTTATTTC [CTTTA]” are 0.404 ± 0.0099 and 0.307 ± 0.019.
Turning to “TTTTTTGCGCAGCAGCATGCTTTTTTTTTTTTTTTATTTA”, the background-corrected fluorescence amounted to 0.545 ± 0.017 (dye: Cy3 (3' terminal)) and 0.432 ± 0.031 (dye: Cy5 (3' terminal)).
The like results for “TTTTTTGCGCAGCATCAGCATTTTTTTTTTTTTTTATTGT [TGTTA]” were, in that order, 0.589 ± 0.027 and 0.486 ± 0.037.
The corresponding values for “TTTTTTGCGCAGCATCATCATTTTTTTTTTTTTTTATTGG [GGTTA]” are 0.549 ± 0.038 and 0.476 ± 0.055.
As to “TTTTTTGCGCAGCATCATGATTTTTTTTTTTTTTTATTGC [CGTTA]”, the background-corrected fluorescence is, setting by setting: (dye: Cy3 (3' terminal)) 0.525 ± 0.024; (dye: Cy5 (3' terminal)) 0.402 ± 0.051.
Sequence “TTTTTTGCGCAGCATCATGCTTTTTTTTTTTTTTTATTGA [AGTTA]” showed a background-corrected fluorescence (dye: Cy3 (3' terminal)) of 0.643 ± 0.018 and a background-corrected fluorescence (dye: Cy5 (3' terminal)) of 0.555 ± 0.03.
On to “TTTTTTGCGCAGCATGAGCATTTTTTTTTTTTTTTATTCT [TCTTA]”, for which the background-corrected fluorescence (dye: Cy3 (3' terminal)) is 0.45 ± 0.021 and the background-corrected fluorescence (dye: Cy5 (3' terminal)) was 0.326 ± 0.021.
Consider “TTTTTTGCGCAGCATGATCATTTTTTTTTTTTTTTATTCG [GCTTA]”, for which the background-corrected fluorescence reads like this: (dye: Cy3 (3' terminal)) 0.519 ± 0.034; (dye: Cy5 (3' terminal)) 0.388 ± 0.021.
The sequence “TTTTTTGCGCAGCATGATGATTTTTTTTTTTTTTTATTCC [CCTTA]” returned a background-corrected fluorescence (dye: Cy3 (3' terminal)) of 0.404 ± 0.016 and a background-corrected fluorescence (dye: Cy5 (3' terminal)) of 0.272 ± 0.02.
The like results for “TTTTTTGCGCAGCATGATGCTTTTTTTTTTTTTTTATTCA [ACTTA]” were, in that order, 0.484 ± 0.035 and 0.351 ± 0.021.
In the case of “TTTTTTGCGCAGCATGCGCATTTTTTTTTTTTTTTATTAT”, the background-corrected fluorescence by setting is: (dye: Cy3 (3' terminal)) 0.508 ± 0.031; (dye: Cy5 (3' terminal)) 0.418 ± 0.024.
The corresponding values for “TTTTTTGCGCAGCATGCTCATTTTTTTTTTTTTTTATTAG [GATTA]” are 0.552 ± 0.011 and 0.421 ± 0.058.
The corresponding values for “TTTTTTGCGCAGCATGCTGATTTTTTTTTTTTTTTATTAC [CATTA]” are 0.405 ± 0.022 and 0.334 ± 0.032.
The like results for “TTTTTTGCGCAGCATGCTGCTTTTTTTTTTTTTTTATTAA [AATTA]” were, in that order, 0.585 ± 0.024 and 0.416 ± 0.035.
With “TTTTTTGCGCATCAGCAGCATTTTTTTTTTTTTTTATGTT [TTGTA]”, the background-corrected fluorescence (dye: Cy3 (3' terminal)) came out at 0.575 ± 0.028 and the background-corrected fluorescence (dye: Cy5 (3' terminal)) stood at 0.432 ± 0.035.
The corresponding values for “TTTTTTGCGCATCAGCATCATTTTTTTTTTTTTTTATGTG [GTGTA]” are 0.607 ± 0.043 and 0.452 ± 0.034.
The corresponding values for “TTTTTTGCGCATCAGCATGATTTTTTTTTTTTTTTATGTC [CTGTA]” are 0.454 ± 0.021 and 0.351 ± 0.046.
The corresponding values for “TTTTTTGCGCATCAGCATGCTTTTTTTTTTTTTTTATGTA” are 0.549 ± 0.017 and 0.47 ± 0.039.
